The target in data set [1] is T1, Nsp3 Ubl1 (SARS-CoV-2, UniProt P0DTD1 819-929). Briefly: EMSA; 3.8 uM Ubl1. The conditions noted are these: protein: recombinant; tags: His tag removed by thrombin; single strand.
The target of data set [2] is T2, Nucleocapsid protein N (SARS-CoV-2, UniProt P0DTC9 1-419). Briefly: EMSA; 3.8 uM N, 2.5 uM DNA; displaced by Ubl1. The conditions noted are these: protein: recombinant; tags: N-terminal His6-TEV, tag removed; chain copies: 2; single strand.
The target in data set [3] is T1, Nsp3 Ubl1. Briefly: MST; Ubl1 1, 5, 10 uM. The conditions noted are these: protein: recombinant; tags: His tag removed by thrombin; label: 5'-Cy5; single strand.
Data set [4] concerns the target T2, Nucleocapsid protein N. Briefly: MST; no Ubl1; 40 nM RNA. The conditions noted are these: protein: recombinant; tags: N-terminal His6-TEV, tag removed; chain copies: 2; label: 5'-Cy5; single strand.
Data set [5] has as its target T2, Nucleocapsid protein N. Briefly: EMSA. Conditions: protein: recombinant; tags: N-terminal His6-TEV, tag removed; chain copies: 2; single strand.

B1: 17-mer TRS ssDNA (ssDNA)
DNA: TGTTCTCTAAACGAACT
With B1, the binding result with Nsp3 Ubl1 [1] was “no binding”; with Nucleocapsid protein N [2] it was “binds”.

B2: 11-mer TRS ssRNA (ssRNA)
RNA: UCUAAACGAAC
For the molecule B2, in the data set with Nsp3 Ubl1 [3], the binding result is on record as “no binding”. Further, the dissociation constant Kd with Nucleocapsid protein N [4] is 5.1 ± 0.6 µM.

B3: 17-mer TRS ssRNA (ssRNA)
RNA: UGUUCUCUAAACGAACU
In the case of B3, the binding result in the data set with Nucleocapsid protein N [5] is given as “binds”; with Nsp3 Ubl1 [1], “no binding”.

Source of the values: paper PMC9938351, “Structural insights into ribonucleoprotein dissociation by nucleocapsid protein interacting with non-structural protein 3 in SARS-CoV-2”.
